Experimental data reported in patent CN117003877A (XIANGYA HOSPITAL CENTRAL SOUTH UNIV, dated 2023).

What was measured:
[1] = biological target: T1, 人源性Prdx1重组蛋白 (recombinant peroxiredoxin 1 protein bought from Abclone) (human, UniProt Q06830 1-199, limits assumed); test: ELISA on recombinant human Prdx1
T1 construct: Bought recombinant protein; also called 重组prdx1蛋白; 重组Prdx1
T1 sequence (looked up): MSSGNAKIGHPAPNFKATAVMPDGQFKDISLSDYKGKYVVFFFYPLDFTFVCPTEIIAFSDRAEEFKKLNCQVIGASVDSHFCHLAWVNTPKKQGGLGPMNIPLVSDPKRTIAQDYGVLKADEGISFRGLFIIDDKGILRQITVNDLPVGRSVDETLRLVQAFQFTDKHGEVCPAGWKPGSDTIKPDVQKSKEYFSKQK

[2] = biological target: T2, 小鼠Prdx1蛋白 (endogenous mouse Prdx1 in liver, lung, kidney tissue and primary macrophages) (mouse, UniProt P35700 2-199); test: Western blot on mouse liver, lung, kidney, primary macrophages
T2 construct: Endogenous protein, denatured on Western blot; also called 鼠源性Prdx1蛋白; 小鼠的Prdx1蛋白
T2 sequence (looked up): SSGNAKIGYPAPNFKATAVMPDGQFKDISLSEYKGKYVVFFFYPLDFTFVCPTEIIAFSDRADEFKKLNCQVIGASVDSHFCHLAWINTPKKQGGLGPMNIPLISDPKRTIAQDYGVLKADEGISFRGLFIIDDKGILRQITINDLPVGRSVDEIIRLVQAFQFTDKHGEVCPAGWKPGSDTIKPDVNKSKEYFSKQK

B1: 抗Prdx1蛋白的单克隆中和抗体 (mouse monoclonal anti-human Prdx1 neutralizing antibody, Example 4) (antibody, V domains shown)
VH: QVQLQQSGPELMKPGASVKISCKATGYTFSNSWIEWVKQRPGHGLEWIGEILPGSGDTDYNEKFKGKATITADTSSNTAYMQLSSLTSEDSAVYYCASPYGDYFFANWGLGTLVTVSA
VL: DIVITQDELSNPVTSGESVSISCRSSKSLLYKDGKTYLNWFLQRPGQSPQLLIYLMSTRAAGVSDRFSGSGSGTDFTLEISRVKAEDVGVYYCQQLVEYPYTFGGGTKLEIK
notes: Mouse (BALB/c) hybridoma IgG purified from ascites on protein G; also called Prdx1单克隆抗体; Prdx1单克隆中和抗体
[1]
  binding result: binds
[2]
  binding result: binds
